These binders were tested against acetylcholine receptor (assay: SPR, AchR on chip, peptide 10 uM).

Row | Binder | Binding affinity (RU)
1 | RVFLR [5mer-12] | 70
2 | RWYCR [5mer-247] | 80
3 | KRVCK [5mer-318] | 64
4 | KRFLR [5mer-4] | 58
5 | KWLYK [5mer-23] | 86
6 | RVQTR [5mer-319] | 74
7 | KGVCK [5mer-15] | 75
8 | KSFTR [5mer-246] | 60
9 | KQYLR [5mer-316] | 73
10 | KLFLR [5mer-5] | 54
11 | KRYCR [5mer-312] | 81
12 | KSRQR [5mer-310] | 78
13 | KSQRR [5mer-324] | 58
14 | KVQYR [5mer-309] | 70
15 | RGVQR [5mer-9] | 77
16 | KWYYR [5mer-323] | 77
17 | KGRYR [5mer-303] | 87
18 | RSQLK [5mer-313] | 75
19 | KRICK [5mer-305] | 72
20 | RWQQK [5mer-6] | 61
21 | RSVRK [5mer-304] | 76
22 | RWLCK [5mer-14] | 63
23 | KSVSK [5mer-244] | 78
24 | RQQLK [5mer-22] | 66
25 | KRVLK [5mer-3] | 66

Row | Binder | Binding affinity (RU)
26 | RGRYK [5mer-20] | 78
27 | KLLSK [5mer-243] | 51
28 | KVVYK [5mer-25] | 60
29 | RSLSR [5mer-321] | 68
30 | KWFTR [5mer-21] | 63
31 | KSQCR [5mer-24] | 67
32 | RWYLK [5mer-248] | 63
33 | RLISK [5mer-13] | 52
34 | KQRCK [5mer-307] | 82
35 | KLYTK [5mer-16] | 66
36 | RRQSR [5mer-322] | 84
37 | RLRCR [5mer-308] | 84
38 | RQRSR [5mer-8] | 51
39 | RWYTR [5mer-314] | 80
40 | KSYYR [5mer-306] | 74
41 | RRVQR [5mer-317] | 86
42 | KRIYK [5mer-17] | 70
43 | RVQRR [5mer-10] | 55
44 | RQLRR [5mer-18] | 69
45 | KLFSR [5mer-315] | 77
46 | KQRLR [5mer-11] | 84
47 | RVVQR [5mer-320] | 75
48 | RQRSK [5mer-245] | 62
49 | RQLTK [5mer-7] | 54
50 | KRFQR [5mer-19] | 72

Other lines, results leading:

Row | Binding affinity (RU) | Binder
51 | 60 | KWLCK [5mer-548]
52 | 77 | KQVTK [5mer-547]
53 | 63 | RLQLR [5mer-544]
54 | 65 | KVVLK [5mer-546]
55 | 80 | KGQYR [5mer-545]
56 | 50 | KRIQR [5mer-325]
57 | 65 | RLRLK [5mer-543]

What follows are binders tested against acetylcholine receptor (assay: SPR, AchR immobilised on chip, peptide 10 uM).

Row | Binding affinity (RU) | Binder
58 | 24 | RPWKR [5mer-1100]
59 | 14 | RATAR [5mer-1099]
60 | 20 | RKNKK [5mer-807]
61 | 11 | RFSDR [5mer-803]
62 | 17 | RKMFR [5mer-806]
63 | 20 | KFHGR [5mer-801]
64 | 20 | KTHKK [5mer-1102]
65 | 21 | RPWHK [5mer-1107]
66 | 27 | RPTNR [5mer-805]
67 | 15 | RKSGK [5mer-809]
68 | 20 | RNTIR [5mer-804]
69 | 27 | RITVR [5mer-802]
70 | 29 | KEAPR [5mer-800]
71 | 14 | KCHPK [5mer-1109]
72 | 12 | RETHK [5mer-1104]
73 | 33 | RPTKR [5mer-1105]
74 | 13 | KFCIR [5mer-808]
75 | 18 | KKSHR [5mer-1103]
76 | 11 | KYKNR [5mer-1101]
77 | 19 | RNPIR [5mer-1108]
78 | 18 | RYTER [5mer-1106]
79 | 24 | KDKPR [5mer-799]

— patent publication US20250011363A1, “OPTIMIZED SHORTENED PEPTIDE THAT BINDS TO ACETYLCHOLINE RECEPTOR, AND USE THEREOF” (SKINMED CO., LTD., priority 2021, published 2025)
